Measurements as given in article PMC11154711 (2024).

Key:
Test in all cases: BLI
OTUB1 V173K [1] = target: T1, OTUB1 V173K (human, UniProt Q96FW1 1-271, V173K)
OTUB1 F133A [2] = target: T2, OTUB1 F133A (human, UniProt Q96FW1 1-271, F133A)
OTUB1 V173D [3] = target: T3, OTUB1 V173D (human, UniProt Q96FW1 1-271, V173D)
OTUB1 V173K [4] = target: T1, OTUB1 V173K; remark: listed apart in the source
OTUB1 F133A [5] = target: T2, OTUB1 F133A; remark: listed apart in the source
OTUB1 V173D [6] = target: T3, OTUB1 V173D; remark: listed apart in the source

B1: Ubc13 (E2 ubiquitin-conjugating enzyme) (enzyme)
chain: MAGLPRRIIKETQRLLAEPVPGIKAEPDESNARYFHVVIAGPQDSPFEGGTFKLELFLPEEYPMAAPKVRFMTKIYHPNVDKLGRICLDILKDKWSPALQIRTVLLSIQALLSAPNPDDPLANDVAEQWKTNEAQAIETARAWTRLYAMNNI
- Kd (OTUB1 V173K [1]): 1760 nM
- Kd (OTUB1 F133A [2]): 46.7 µM
- Kd (OTUB1 V173D [3]): 3.02 µM
- koff (OTUB1 V173K [4]): 0.006 s⁻¹
- koff (OTUB1 F133A [5]): 0.005 s⁻¹
- koff (OTUB1 V173D [6]): 0.004 s⁻¹
